Earlier results in paper PMC11178655, “Dosimetry and pharmacokinetics of [^177Lu]Lu-satoreotide tetraxetan in patients with progressive neuroendocrine tumours” (European Journal of Nuclear Medicine and Molecular Imaging, 2024).

What was measured:
patients with NETs = conditions: human, in vivo; cited from earlier work
Text: In the present study, we observed tumour ADCs of 5.0 Gy/GBq after cycle 1 and 4.0 Gy/GBq after cycle 3. These tumour ADCs are consistent with previously reported findings from a direct comparison of [^177Lu]Lu-satoreotide tetraxetan and [^177Lu]Lu-DOTA-TATE in the same tumours and patients in a cross-over design, which reported median tumour dose of [^177Lu]Lu-satoreotide tetraxetan of 7.0 Gy/GBq (range: 4.2–29 Gy/GBq), 3.5 times greater than the median tumour dose of [^177Lu]Lu-DOTA-TATE [22]. However, it should be noted that median tumour dose in this pilot study was calculated from a limi ... || The median ADC of [^177Lu]Lu-satoreotide tetraxetan for the bone marrow using a blood-based approach was lower than reported in other [^177Lu]Lu-satoreotide tetraxetan studies. The result is, however, similar to the mean blood-based radiation ADCs for the bone marrow reported for [^177Lu]Lu-DOTA-TATE [32].

[1] = in vivo; cited from earlier work
Text: In addition, consistent with their specific binding to SSTR, both [^177Lu]Lu-satoreotide tetraxetan and [^177Lu]Lu-DOTA-TATE predominantly show uptake in tumours, followed by the kidneys, spleen, and liver.

## [^177Lu]Lu-DOTA-TATE
Patients with NETs
  Blood-based bone marrow ADC: ≤ 0.02 Gy/GBq
  Image-based bone marrow ADC: up to 0.06 Gy/GBq
  Median absorbed dose to the tumour: 4.6 Gy/GBq
[1]
  Mean terminal blood half-life: 72 h
